Test results published in patent US20230218738A1 (Pfizer, published 2023).
Substitutions are numbered along the chain they refer to.

T1: RSV F protein mutant pXCS858 (RSV A2, UniProt P03420 26-109)
T1 chain 1: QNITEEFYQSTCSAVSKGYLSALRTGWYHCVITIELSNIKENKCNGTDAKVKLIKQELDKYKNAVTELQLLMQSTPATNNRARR
T1 chain 2: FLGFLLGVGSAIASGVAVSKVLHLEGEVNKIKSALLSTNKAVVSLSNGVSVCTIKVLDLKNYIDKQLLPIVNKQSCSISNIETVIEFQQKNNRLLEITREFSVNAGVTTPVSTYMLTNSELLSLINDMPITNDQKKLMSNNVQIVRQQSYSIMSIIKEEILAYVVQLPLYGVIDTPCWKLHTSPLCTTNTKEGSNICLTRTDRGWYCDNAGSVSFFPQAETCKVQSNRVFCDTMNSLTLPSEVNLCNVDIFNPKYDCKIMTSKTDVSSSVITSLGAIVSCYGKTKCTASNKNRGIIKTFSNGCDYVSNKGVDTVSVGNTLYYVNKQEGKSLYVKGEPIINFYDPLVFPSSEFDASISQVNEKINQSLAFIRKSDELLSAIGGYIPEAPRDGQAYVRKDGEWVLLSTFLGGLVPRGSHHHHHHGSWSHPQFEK

T2: RSV F protein mutant pXCS845 (RSV A2, UniProt P03420 26-109)
T2 chain 1: T1 chain 1 with C30S, T78C
T2 chain 2: T1 chain 2 with I12C, C52L, I54S, I160V

T3: RSV F protein mutant pXCS881 (RSV A2, UniProt P03420 26-109)
T3 chain 1: T1 chain 1
T3 chain 2: T1 chain 2 with L6C, I54S, N235C, E351Q, D353S

T4: RSV F protein mutant pXCS888 (RSV A2, UniProt P03420 26-109)
T4 chain 1: T1 chain 1 with C30S, T78C
T4 chain 2: T1 chain 2 with I12C, C52L, E351Q, D353S

B1: AM22 (antibody, V domains shown)
VH: QVQLVQSGAEVKKPGATVKVSCKISGHTLIKLSIHWVRQAPGKGLEWMGGYEGEVDEIFYAQKFQHRLTVIADTATDTVYMELGRLTSDDTAVYFCGTLGVTVTEAGLGIDDYWGQGTLVTVSS
VL: EIVLTQSPGTLSLSPGERATLSCRASQIVSRNHLAWYQQKPGQAPRLLIFGASSRATGIPVRFSGSGSGTDFTLTINGLAPEDFAVYYCLSSDSSIFTFGPGTKVDFK
B2: MPE8 (antibody, V domains shown)
VH: EVQLVESGGGLVKPGGSLRLSCAASGFTFSSYSMNWVRQAPGKGLEWVSSISASSSYSDYADSAKGRFTISRDNAKTSLFLQMNSLRAEDTAIYFCARARATGYSSITPYFDIWGQGTLVTVSS
VL: QSVVTQTPSVSGAPGQRVTISCTGSSSNIGAGYDVHWYQQLPGTAPKLLIYDNNNRPSGVPDRFSASKSGTSASLAITGLQAEDEADYYCQSYDRNLSGVFGTGTKVTVL
notes: also called MPEG

Key:
Assay in all cases: BLI (Octet), F on anti-HIS tip, 20 nM mAb
[1] = biological target: RSV F protein mutant pXCS884 (RSV A2, UniProt P03420 26-109)
[2] = biological target: RSV F protein mutant pXCS760 (RSV A2, UniProt P03420 26-109)
[3] = biological target: RSV F protein mutant pXCS806 (RSV A2, UniProt P03420 26-109)
[4] = biological target: RSV F protein mutant pXCS809 (RSV A2, UniProt P03420 26-109)
[5] = biological target: RSV F protein mutant pXCS879 (RSV A2, UniProt P03420 26-109)
[6] = biological target: T1, RSV F protein mutant pXCS858
[7] = biological target: T2, RSV F protein mutant pXCS845
[8] = biological target: RSV F protein mutant pXCS898 (RSV A2, UniProt P03420 26-109)
[9] = biological target: RSV F protein mutant pXCS877 (RSV A2, UniProt P03420 26-109)
[10] = biological target: T3, RSV F protein mutant pXCS881
[11] = biological target: T4, RSV F protein mutant pXCS888
[12] = biological target: RSV F protein mutant pXCS883 (RSV A2, UniProt P03420 26-109)

Binder	Response (nm shift) [1]	Response (nm shift) [2]	Response (nm shift) [3]	Response (nm shift) [4]	Response (nm shift) [5]	Response (nm shift) [6]	Response (nm shift) [7]	Response (nm shift) [8]	Response (nm shift) [9]	Response (nm shift) [10]	Response (nm shift) [11]	Response (nm shift) [12]
B1	0.323 nm	0.121 nm	0.152 nm	0.185 nm	0.351 nm	0.547 nm	0.314 nm	0.416 nm	0.213 nm	0.178 nm	0.434 nm	0.233 nm
B2	0.784 nm	0.151 nm	–	–	–	1.06 nm	0.699 nm	–	–	0.763 nm	0.878 nm	0.704 nm
